Reference: patent US20230028110A1 (ADAPTATE BIOTHERAPEUTICS, published 2023)

Tests used:
[1] = target: Vδ1 chain of the γδ TCR on human Vδ1 γδ T cells (human); experiment: cell-based or functional assay
[2] = target: T1, L1 (DV1-GV4), soluble human Vδ1/Vγ4 γδ TCR heterodimer in leucine zipper format (human); experiment: SPR (Reichert 4SPR), antibody on Protein A chip, antigen flown over
T1 construct: Biotinylated in the DELFIA ranking; also called Antigen L1 (TRDV1/TRGV4); human DV1-GV4; not shown: gamma chain: Vγ4 (TRGV4) domain on a TCR constant region, leucine zipper, histidine tag
T1 sequence (main, as listed by the source): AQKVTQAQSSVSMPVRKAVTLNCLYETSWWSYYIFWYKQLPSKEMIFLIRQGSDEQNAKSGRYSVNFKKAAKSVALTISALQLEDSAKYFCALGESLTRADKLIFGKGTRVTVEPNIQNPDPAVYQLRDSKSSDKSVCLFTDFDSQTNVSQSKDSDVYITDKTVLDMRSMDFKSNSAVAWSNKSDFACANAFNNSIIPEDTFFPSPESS

[3] = target: T1, L1 (DV1-GV4), soluble human Vδ1/Vγ4 γδ …; experiment: as above; remark: listed apart in the source
Description: Recombinant human Vδ1 heterodimer or human PD-1 was flown over the cell at a top concentration of 100 nM.

[4] = target: T1, L1 (DV1-GV4), soluble human Vδ1/Vγ4 γδ …; experiment: as above; remark: listed apart in the source
Description: (§1) Recombinant human Vδ1 heterodimer or human 4-1BB was flown over the cell at a top concentration of 100 nM.

[5] = target: T1, L1 (DV1-GV4), soluble human Vδ1/Vγ4 γδ …; experiment: as above; remark: listed apart in the source
Description: Recombinant human Vδ1 heterodimer or human TIGIT was flown over the cell at a top concentration of 100 nM.

[6] = target: T2, Her2 on Her2+ breast cancer cells (SK-BR-3, BT-474) (human, UniProt P04626 23-1255); experiment: flow cytometry on SK-BR-3 cells, anti-human IgG secondary antibody
T2 construct: whole, on cells; also called ErbB-2; CD340

Recombinant human 4-1BB = target: T3, Recombinant human 4-1BB (human, UniProt Q07011 24-186); experiment: SPR, Reichert 4SPR; antibody captured on Protein A chip, human 4-1BB flown over
T3 construct: also called CD137
T3 sequence (Q07011 24-186 limits assumed): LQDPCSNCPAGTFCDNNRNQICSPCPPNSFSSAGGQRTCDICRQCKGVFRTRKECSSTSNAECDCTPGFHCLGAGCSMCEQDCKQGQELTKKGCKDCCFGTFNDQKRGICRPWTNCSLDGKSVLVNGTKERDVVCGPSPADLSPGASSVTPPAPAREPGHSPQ
Description: as §1

[7] = target: T4, Vδ1 chain of the γδ TCR on human Vδ1 γδ T cells (human); experiment: flow cytometry on Vδ1 γδ T-cells, anti-human IgG secondary antibody, % IgG bound cells
T4 construct: whole, on cells; also called cell surface Vδ1 TCR; Vδ1-positive γδ T cells
T4 sequence (A0A1B0GX56 22-115, stated change not applied): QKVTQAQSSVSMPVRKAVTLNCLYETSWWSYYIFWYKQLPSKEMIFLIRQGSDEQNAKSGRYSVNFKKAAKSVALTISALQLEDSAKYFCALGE
Description: After washing, cells were incubated for a further 15 minutes with anti-human IgG secondary antibodies before washing and fixing. The amount of antibody bound to each cell type was determined by flow cytometry.

[8] = target: T4, Vδ1 chain of the γδ TCR on human Vδ1 γδ …; experiment: flow cytometry on Vδ1 γδ T-cells, anti-human IgG secondary antibody, % cells bound IgG
[9] = target: T1, L1 (DV1-GV4), soluble human Vδ1/Vγ4 γδ …; experiment: SPR (Reichert 4SPR), antibody on Protein A chip, Vδ1 heterodimer at 6.25-100 nM as analyte
[10] = target: T5, Cyno DV1/GV77 antigen, recombinant cynomolgus Vδ1 heterodimer (cynomolgus monkey); experiment: as above
T5 construct: also called cyno TRDV1; Cyno DV1-77; not shown: delta CDR3/J, TCR constant region, zipper and tag; the whole gamma chain GV77
T5 sequence (delta, as listed by the source limits assumed): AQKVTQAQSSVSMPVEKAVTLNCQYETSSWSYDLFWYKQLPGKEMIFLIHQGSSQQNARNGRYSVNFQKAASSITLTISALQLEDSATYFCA

[11] = target: T4, Vδ1 chain of the γδ TCR on human Vδ1 γδ …; experiment: flow cytometry, Vδ1 γδ T cells of donor TS164, mAb titrated up to about 500 nM at 4 C, anti-human IgG detection
Description: All incubation steps were performed at 4° C. and mAb binding was determined using flow cytometry to measure the median level of fluorescence. Logarithmic four parameter dose-response curves were fitted using GraphPad Prism 9. […] For Vδ1-positive γδ T cell, data is represented as the mean two donors.
A range of target cells were assayed to determine the specificity and affinity of Vδ1 mAb binding. This included expanded skin-derived Vδ1 γδ T-cells, HEK293T cells, Raji cells, and multiple leukocyte subsets within human primary blood mononuclear cells. Adherent or semi-adherent cells (skin-derived Vδ1 γδ T-cells, HEK293T) were detached from tissue culture flask and resuspended in PBS. Similarly, non-adherent cell types (Raji, PBMC), were harvested and resuspended in PBS. Cells were seeded at a final density of 100,000 cells per well in v-bottom 96-well plates. Cells underwent centrifugation and the cell pellets were resuspended in FcR blocking reagent according to the manufacturer's instructions, and incubated for 20 minutes at 4C prior to a further wash. […] To determine the quantity of mAb bound to the cell surface, the cells were then stained with a murine anti-human IgG secondary antibody, conjugated to APC (dilution: 1:100). For Vδ1 γδ T-cells, HEK293T and Raji, the cells were also stained solely with a viability dye.

IC50 (read off the curve), Vδ1 TCR downregulation, γδ T-cells alone [1]: ~0.1 nM
Kd [2]: 0.01 nM
Kd [3]: 0.29 nM
Kd [4]: 1.25 nM
Kd [5]: 0.29 nM
binding result [6]: no binding (tested: about 300 nM)
binding result (Recombinant human 4-1BB): no binding
EC50 (read off the curve) [7]: ~0.3 nM
EC50 (read off the curve) [8]: ~0.2 nM
Kd [9]: 0.34 nM
Kd [10]: 2.6 nM
EC50 (read off the curve) [11]: ~2 nM
B1: ADT1-4-2 (antibody, IgG1, V domains shown)
VH: EVQLQQSGPGLVKPSQTLSLTCAISGDSVSSKSAAWNWIRQSPSRGLEWLGRTYYRSKWSTDYAASVKSRITINPDTSKNQLSLQLNSVTPEDTAVYYCARTWVGYVDRWGQGTLVTVSS
VL: DIQMTQSPPALSASVGDRVTITCRASQDINDWLAWYQHKPGKAPKLLIYDASSLESGVPLRFSGSGSGTEFTLTISSLQPDDFATYYCQQKYSAPQVTFGQGTRLEIK
notes: IgG1
